Measurements from US20240409598A1, “PEPTIDE INHIBITORS OF INTERLEUKIN-23 RECEPTOR” (Janssen Biotech, Inc., priority 2021, published 2024).
*1 amine or outer side, *2 acyl side, *3 side chain or, on linkers, in order; H or OH if unused. Bridges are numbered along the chain shown (N, C = ends). Primed or numbered codes have the meaning given here. [ ]: non-standard residue; d: D form. AEF(G) = 4-(2-guanidinoethoxy)phenylalanine, N=C(N)NCCOc1ccc(C[C@H](N[*:1])C(=O)[*:2])cc1; Trp(7-Me) = Cc1cccc2c(C[C@H](N)C(=O)O)c[nH]c12; 3Pal(5-Me) = Cc1cncc(C[C@H](N)C(=O)O)c1; 2Nal = N[C@@H](Cc1ccc2ccccc2c1)C(=O)O; 3Pal = N[C@@H](Cc1cccnc1)C(=O)O; Pen = CC(C)(S)[C@H](N)C(=O)O; αMeC = C[C@](N)(CS)C(=O)O; AEF′ = not defined here; Abu = CC[C@H](N)C(=O)O; THP = not defined here; Sar = CNCC(=O)O

T1: interleukin-23 receptor (IL-23R) (UniProt Q5VWK5 24-629, limits assumed)
T1 sequence (looked up): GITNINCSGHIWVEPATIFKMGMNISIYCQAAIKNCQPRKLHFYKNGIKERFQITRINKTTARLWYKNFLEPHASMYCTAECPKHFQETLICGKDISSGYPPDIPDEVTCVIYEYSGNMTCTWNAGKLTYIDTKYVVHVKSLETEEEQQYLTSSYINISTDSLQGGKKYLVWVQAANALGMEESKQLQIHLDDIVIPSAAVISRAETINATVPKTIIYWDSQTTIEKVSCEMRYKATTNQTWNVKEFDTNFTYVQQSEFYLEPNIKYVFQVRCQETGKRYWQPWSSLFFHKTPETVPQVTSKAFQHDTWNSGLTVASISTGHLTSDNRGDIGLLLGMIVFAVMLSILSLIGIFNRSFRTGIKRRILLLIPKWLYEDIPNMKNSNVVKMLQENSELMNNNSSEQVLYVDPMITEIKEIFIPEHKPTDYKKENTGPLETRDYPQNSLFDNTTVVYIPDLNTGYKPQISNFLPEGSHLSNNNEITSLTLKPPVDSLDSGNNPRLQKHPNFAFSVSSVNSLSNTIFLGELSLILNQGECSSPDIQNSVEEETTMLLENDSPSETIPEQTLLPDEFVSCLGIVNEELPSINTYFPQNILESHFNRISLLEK


Tests used:
[1] = test system: peripheral blood mononuclear cells (PBMCs); test: PBMC pSTAT3 Assay; type: cell-based; settings: PBMCs from healthy donors; IL-23 5 ng/ml; 30 minutes stimulation
Protocol: Cryopreserved peripheral blood mononuclear cells (PBMCs) from healthy donors were thawed and washed twice in ImmunoCult-XF T cell expansion medium (XF-TCEM) supplemented with CTL anti-aggregate wash. The cells were counted, resuspended at 2×10^5 cells per mL XF-TCEM supplemented with penicillin/streptomycin and 100 ng/ml […] (BioLegend, 579404), and cultured in tissue culture flasks coated with anti-CD3 (eBioscience, 16-0037-85 or BD Pharmingen, 555329) at 37° C. in 5% CO2. On day 4 of culture, PBMCs were collected, washed twice in RPMI-1640 supplemented with 0.1% BSA (RPMI-BSA), and incubated in RPMI-BSA in upright tissue culture flasks for 4 hours at 37° C. in 5% CO2. Following this ‘starvation,’ a total of 6×10^4 cells in 30 μL RPMI-BSA was transferred into each well of a 384-well plate pre-spotted with peptide or DMSO. The cells were incubated for 30 minutes prior to the addition of IL-23 at a final concentration of 5 ng/ml. The cells were stimulated with cytokine for 30 minutes at 370C in 5% CO2, transferred onto ice for 10 minutes, and lysed. Cell lysates were stored at −80° C. until phosphorylated STAT3 was measured using the phospho-STAT panel kit (Meso Scale Discovery, K15202D).

[2] = target: T1, interleukin-23 receptor (IL-23R); test: cell-based or functional assay
[3] = target: T1, interleukin-23 receptor (IL-23R); test: cell-based or functional assay; remark: listed apart in the source

Molecule | IC50 [1] [nM] | IC50, IL23R Reporter Assay [2] [nM] | PBMC pSTAT3 IC50 [3] [pM]
MeCO-r-Abu (1)-N-T-W-K(Ac)-aMeC (1)-AEF-2Nal-THP-E-N-3Pya-Sar-CONH2 [compound 478] | 0.015 |  | 
MeCO-r-Pen-N-T-7MeW-K(Ac)-Pen-AEF-2Nal-THP-E-N-5MePyridinAla-Sar-CONH2 [compound 345] | 0.0076 |  | 
Ac-[Pen]NT[Trp(7-Me)]K(Ac)[Pen][AEF(G)][2Nal][THP]EN[3Pal][Sar]-NH2 (disulfide 1-6; reading uncertain; also: printed as MeCO-Pen-N-T-7MeW-K(Ac)-Pen-AEF(G)-2Nal-THP-E-N-3Pya-Sar-CONH2) [Compound 477] |  | 91 | 5.5
Ac-[dR][Pen]NT[Trp(7-Me)]K(Ac)[Pen][AEF′][2Nal][THP]EN[3Pal(5-Me)][Sar]-NH2 (disulfide 2-7; reading uncertain; also: printed as MeCO-r-Pen-N-T-7MeW-K(Ac)-Pen-AEF-2Nal-THP-E-N-5MePyridinAla-Sar-CONH2) [Compound 345] |  | 5 | 7.6
Ac-[dR][Abu]NTWK(Ac)[αMeC][AEF′][2Nal][THP]ENX[Sar]-NH2 (thioether 2-7; not fully specified (residue 13); printed as MeCO-r-Abu (1)-N-T-W-K(Ac)-aMeC (1)-AEF-2Nal-THP-E-N-3Pya-Sar-CONH2) [Compound 478] |  |  | 15
